Data reported in publication PMC12961186, “JUNO-coated beads as a functional assay to capture and characterize fertilization-competent human sperm” (Human Reproduction Open, 2026).

Target: T1, Recombinant human IZUMO1 ectodomain (residues 22-254) (human, UniProt Q8IYV9 22-254)
T1 construct: IZUMO1, human, UniProt Q8IYV9, residues 22-254 (ectodomain); The construct has an N-terminal BiP signal peptide for secretion and a thrombin cleavage site before the C-terminal 10xHis tag; In the bead assay the tag was probably cleaved, since the beads capture His tags (surmise); also called rIZUMO1; IZUMO1 (residues 22-254); source: Drosophila S2 cells, stably transfected, secreted; purified …
T1 sequence (Q8IYV9 22-254): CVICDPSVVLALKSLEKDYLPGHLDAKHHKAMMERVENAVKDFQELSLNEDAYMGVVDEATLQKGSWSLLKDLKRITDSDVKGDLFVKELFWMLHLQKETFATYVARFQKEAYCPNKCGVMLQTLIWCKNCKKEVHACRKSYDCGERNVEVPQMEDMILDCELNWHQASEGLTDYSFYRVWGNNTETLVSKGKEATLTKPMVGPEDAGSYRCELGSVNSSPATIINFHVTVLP
Experiment: SPR; Nicoya Alto digital SPR, single-cycle kinetics, 25 °C; biotinylated JUNO (800 nM) immobilised as bait on streptavidin-coated carboxyl PEG cartridge; IZUMO1 as analyte at 1000, 333, 111, 37 and 12.3 nM; PBS pH 7.4, 0.05% Tween-20; technical triplicate
Settings: both partners purified

B1: Human JUNO ectodomain (residues 20-228), biotinylated (domain or fragment, UniProt A6ND01 20-228, looked up)
chain: GDELLNICMNAKHHKRVPSPEDKLYEECIPWKDNACCTLTTSWEAHLDVSPLYNFSLFHCGLLMPGCRKHFIQAICFYECSPNLGPWIQPVGSLGWEVAPSGQGERVVNVPLCQEDCEEWWEDCRMSYTCKSNWRGGWDWSQGKNRCPKGAQCLPFSHYFPTPADLCEKTWSNSFKASPERRNSGRCLQKWFEPAQGNPNVAVARLFAS
modifications: biotin (EZ-link Sulfo-NHS-LC-Biotin, 1:1 molar ratio); glycosylated
notes: JUNO, human, UniProt A6ND01, residues 20-228 (ectodomain); The construct has an N-terminal BiP signal peptide for secretion and a thrombin cleavage site before the C-terminal 10xHis tag; also called recombinant JUNO; rhJUNO; source: Drosophila S2 cells, stably transfected, secreted; purified (Ni-NTA, SEC)
- Kd: 37.6 nM
- koff: 0.00387 s⁻¹
- kon: 103000 M⁻¹ s⁻¹
